The values that follow come from patent US20220332804A1 (CSL INNOVATION, published 2022).

Test in all cases: SPR, KD relative to WT C2;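 note: biacore SPR at 37 °C, anti-C2 mAbs captured via immobilised goat anti-human IgG, C2 alanine or serine surface mutants as analytes, 1:1 model fitted, double-referenced sensograms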
The target in one experiment is T1, human C2 S713A (human, UniProt P06681 21-752).
T1 sequence: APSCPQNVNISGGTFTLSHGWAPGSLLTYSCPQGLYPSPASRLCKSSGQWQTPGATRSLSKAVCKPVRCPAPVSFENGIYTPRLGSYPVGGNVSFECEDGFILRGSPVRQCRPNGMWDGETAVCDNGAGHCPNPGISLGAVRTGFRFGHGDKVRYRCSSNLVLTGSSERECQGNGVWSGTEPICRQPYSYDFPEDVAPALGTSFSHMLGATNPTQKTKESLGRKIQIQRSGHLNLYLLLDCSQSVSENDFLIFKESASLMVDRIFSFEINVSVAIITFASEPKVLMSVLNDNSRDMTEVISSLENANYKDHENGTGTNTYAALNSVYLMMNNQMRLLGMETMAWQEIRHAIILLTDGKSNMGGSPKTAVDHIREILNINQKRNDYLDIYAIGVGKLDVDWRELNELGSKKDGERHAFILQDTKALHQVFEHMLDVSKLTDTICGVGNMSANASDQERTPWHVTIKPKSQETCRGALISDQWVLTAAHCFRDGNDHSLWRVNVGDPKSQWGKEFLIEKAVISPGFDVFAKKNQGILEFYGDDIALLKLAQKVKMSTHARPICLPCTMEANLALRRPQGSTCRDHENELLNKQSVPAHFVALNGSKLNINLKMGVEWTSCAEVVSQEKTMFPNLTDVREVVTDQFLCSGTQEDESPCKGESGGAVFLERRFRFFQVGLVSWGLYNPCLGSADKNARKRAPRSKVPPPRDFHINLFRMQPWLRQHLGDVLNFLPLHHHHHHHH

For a further experiment, the target named is T2, human C2 N424A (human, UniProt P06681 21-752).
T2 sequence: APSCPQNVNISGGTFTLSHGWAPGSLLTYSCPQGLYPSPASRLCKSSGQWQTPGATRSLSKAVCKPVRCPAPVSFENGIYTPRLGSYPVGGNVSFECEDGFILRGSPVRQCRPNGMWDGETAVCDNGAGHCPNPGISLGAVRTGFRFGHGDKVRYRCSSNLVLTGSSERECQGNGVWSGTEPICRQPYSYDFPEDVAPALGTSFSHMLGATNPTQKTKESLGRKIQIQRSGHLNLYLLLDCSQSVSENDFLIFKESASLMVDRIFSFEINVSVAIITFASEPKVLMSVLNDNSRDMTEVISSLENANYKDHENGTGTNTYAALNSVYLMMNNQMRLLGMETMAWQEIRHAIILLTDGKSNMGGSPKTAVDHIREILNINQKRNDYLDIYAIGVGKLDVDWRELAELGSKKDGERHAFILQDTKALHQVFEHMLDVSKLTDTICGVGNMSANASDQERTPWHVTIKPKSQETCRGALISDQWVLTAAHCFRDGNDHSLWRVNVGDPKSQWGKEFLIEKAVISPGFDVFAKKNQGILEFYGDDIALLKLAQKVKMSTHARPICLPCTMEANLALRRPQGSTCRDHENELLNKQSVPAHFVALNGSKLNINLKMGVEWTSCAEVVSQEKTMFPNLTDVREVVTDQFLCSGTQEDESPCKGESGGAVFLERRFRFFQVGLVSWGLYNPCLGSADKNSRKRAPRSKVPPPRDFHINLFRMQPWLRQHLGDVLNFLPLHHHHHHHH

The target in a further experiment is T3, human C2 E267A (human, UniProt P06681 21-752).
T3 sequence: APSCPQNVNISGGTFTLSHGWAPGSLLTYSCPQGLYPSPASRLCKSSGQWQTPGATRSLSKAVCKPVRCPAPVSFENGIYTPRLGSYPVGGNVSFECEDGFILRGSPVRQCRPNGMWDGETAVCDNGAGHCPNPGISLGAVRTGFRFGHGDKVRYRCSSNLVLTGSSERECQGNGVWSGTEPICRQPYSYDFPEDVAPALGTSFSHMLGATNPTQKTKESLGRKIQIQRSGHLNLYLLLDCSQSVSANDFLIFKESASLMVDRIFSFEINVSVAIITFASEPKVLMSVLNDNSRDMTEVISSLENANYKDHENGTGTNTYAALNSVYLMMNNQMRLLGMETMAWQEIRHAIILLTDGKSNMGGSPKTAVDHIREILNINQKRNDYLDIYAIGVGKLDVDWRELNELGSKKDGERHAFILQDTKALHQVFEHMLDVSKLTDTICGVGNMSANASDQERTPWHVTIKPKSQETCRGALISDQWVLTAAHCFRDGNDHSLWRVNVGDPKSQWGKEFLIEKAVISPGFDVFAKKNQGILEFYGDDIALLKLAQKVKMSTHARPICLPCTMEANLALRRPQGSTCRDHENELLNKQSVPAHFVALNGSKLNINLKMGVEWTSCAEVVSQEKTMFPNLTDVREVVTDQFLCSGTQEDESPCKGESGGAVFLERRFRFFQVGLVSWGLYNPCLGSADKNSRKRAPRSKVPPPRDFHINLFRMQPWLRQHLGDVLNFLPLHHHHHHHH

The next experiment addresses T4, human C2 Y558A (human, UniProt P06681 21-752).
T4 sequence: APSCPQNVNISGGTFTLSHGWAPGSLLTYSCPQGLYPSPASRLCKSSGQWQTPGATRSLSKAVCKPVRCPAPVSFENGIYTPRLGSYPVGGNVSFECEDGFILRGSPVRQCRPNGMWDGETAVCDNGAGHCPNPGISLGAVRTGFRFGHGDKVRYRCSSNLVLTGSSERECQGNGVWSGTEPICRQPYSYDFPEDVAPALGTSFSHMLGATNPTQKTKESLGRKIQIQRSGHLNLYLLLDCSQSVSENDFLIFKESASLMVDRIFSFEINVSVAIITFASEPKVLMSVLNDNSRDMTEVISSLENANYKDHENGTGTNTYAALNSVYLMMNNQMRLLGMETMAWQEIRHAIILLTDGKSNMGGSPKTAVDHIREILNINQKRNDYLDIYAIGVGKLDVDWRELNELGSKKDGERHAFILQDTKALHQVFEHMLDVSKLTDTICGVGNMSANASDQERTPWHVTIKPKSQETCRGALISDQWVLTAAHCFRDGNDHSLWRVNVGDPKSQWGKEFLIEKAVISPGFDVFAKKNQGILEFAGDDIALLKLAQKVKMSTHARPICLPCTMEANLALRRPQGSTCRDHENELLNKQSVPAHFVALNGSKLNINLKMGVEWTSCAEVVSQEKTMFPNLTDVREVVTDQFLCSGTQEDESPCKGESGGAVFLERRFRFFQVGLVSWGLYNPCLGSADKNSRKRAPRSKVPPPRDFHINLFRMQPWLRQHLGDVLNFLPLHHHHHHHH

B1: RF16-226 (antibody, human IgG4 S228P, lambda)
heavy: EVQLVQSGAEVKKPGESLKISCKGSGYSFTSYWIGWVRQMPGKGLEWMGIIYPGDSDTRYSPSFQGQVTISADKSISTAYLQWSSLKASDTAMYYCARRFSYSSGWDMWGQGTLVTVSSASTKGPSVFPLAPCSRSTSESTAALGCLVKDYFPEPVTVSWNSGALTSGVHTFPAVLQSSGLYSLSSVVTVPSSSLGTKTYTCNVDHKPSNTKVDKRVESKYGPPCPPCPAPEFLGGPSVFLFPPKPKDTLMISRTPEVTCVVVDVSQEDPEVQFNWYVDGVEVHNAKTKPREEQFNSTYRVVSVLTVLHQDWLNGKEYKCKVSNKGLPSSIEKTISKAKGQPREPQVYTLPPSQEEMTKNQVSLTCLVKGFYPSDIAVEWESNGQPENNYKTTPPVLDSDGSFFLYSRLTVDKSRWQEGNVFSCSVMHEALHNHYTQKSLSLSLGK
light: SYELTQPPSVSVSPGQTARITCSGDALTSKYVAWYQQKSGLAPLLVIYEDTRRPSGIPAKFSGSSSGSVATLTISGAHGDDEADYYCYSTDASGHQRVFGGGTKLTVLSQPKAAPSVTLFPPSSEELQANKATLVCLISDFYPGAVTVAWKADGSPVKAGVETTKPSKQSNNKYAASSYLSLTPEQWKSHRSYSCQVTHEGSTVEKTVAPTECS
notes: pH-dependent anti-C2 antibody from a phage display library; also called WT
On to B1, for which the Fold diff was determined as 2 fold with human C2 S713A, 0 fold in the experiment with human C2 N424A, 1 fold with human C2 E267A and 16 fold in the experiment with human C2 Y558A.
